The values that follow come from patent US20160039947A1 (Eli Lilly, published 2016).

The assay deals with T1, hHGFR(cMet)-Fc (human, UniProt P08581 25-932).
T1 construct: Coated in the sandwich ELISA; second injection in SPR; not shown: Fc part of the bought fusion protein
As to the kind of experiment: sandwich ELISA: hHGFR(cMet)-Fc coated, IgG, hAxl-Fc-biotin detection. As for the experimental part:
Two sandwich ELISAs are developed, one for detecting anti-HER-2/anti-EGFR BsAb activity and one for detecting anti-cMET/anti-Axl BsAb activity. For both ELISAs, clear 96-well round bottom high binding Immulon microtiter plates (Greiner bio-one, cat#650061) are coated overnight at 2-8° C. with 50 μL/well 1 μg/mL hHER-2-Fc or 1 μg/mL hHGFR(cMet)-Fc (both from R&D systems) in a 50 mM Na₂CO₃ pH 8 buffer. The plates are washed 4 times with PB ST and blocked with 100 μL/well casein buffer (Pierce) for 1 hr at 37° C. The plates are then washed 4 times with PBST and the parental IgG controls or BsAb IgG test articles are added at 50 μL/well and 5 μg/mL and serially diluted 1:3 down the plate. The test articles are incubated on the plate for 1 hr at 37° C. The plates are then washed 4 times with PBST and 50 μL/well 0.2 μg/mL hEGFR-Fc-biotin or hAxl-Fc-biotin (both from R&D systems) is added for 1 hr at 37° C. The plates are then washed 4 times with PBST followed by the addition of a 50 μL/well streptavidin-HRP (Jackson Labs) diluted 1:2000 in PBST. The streptavidin-HRP is incubated in each well for 1 hr at 37° C. The plates are then washed 4 times with PBST and 100 μL/well 1-component TMB substrate is added (KPL laboratories). […] Absorbance (450 nm) of every well in the plates is read using a SpectraMax UV plate reader (Molecular Devices). […]
(In general: An ELISA detects its analyte on a solid surface through an enzyme-linked reagent.)

T1 sequence (P08581 25-932): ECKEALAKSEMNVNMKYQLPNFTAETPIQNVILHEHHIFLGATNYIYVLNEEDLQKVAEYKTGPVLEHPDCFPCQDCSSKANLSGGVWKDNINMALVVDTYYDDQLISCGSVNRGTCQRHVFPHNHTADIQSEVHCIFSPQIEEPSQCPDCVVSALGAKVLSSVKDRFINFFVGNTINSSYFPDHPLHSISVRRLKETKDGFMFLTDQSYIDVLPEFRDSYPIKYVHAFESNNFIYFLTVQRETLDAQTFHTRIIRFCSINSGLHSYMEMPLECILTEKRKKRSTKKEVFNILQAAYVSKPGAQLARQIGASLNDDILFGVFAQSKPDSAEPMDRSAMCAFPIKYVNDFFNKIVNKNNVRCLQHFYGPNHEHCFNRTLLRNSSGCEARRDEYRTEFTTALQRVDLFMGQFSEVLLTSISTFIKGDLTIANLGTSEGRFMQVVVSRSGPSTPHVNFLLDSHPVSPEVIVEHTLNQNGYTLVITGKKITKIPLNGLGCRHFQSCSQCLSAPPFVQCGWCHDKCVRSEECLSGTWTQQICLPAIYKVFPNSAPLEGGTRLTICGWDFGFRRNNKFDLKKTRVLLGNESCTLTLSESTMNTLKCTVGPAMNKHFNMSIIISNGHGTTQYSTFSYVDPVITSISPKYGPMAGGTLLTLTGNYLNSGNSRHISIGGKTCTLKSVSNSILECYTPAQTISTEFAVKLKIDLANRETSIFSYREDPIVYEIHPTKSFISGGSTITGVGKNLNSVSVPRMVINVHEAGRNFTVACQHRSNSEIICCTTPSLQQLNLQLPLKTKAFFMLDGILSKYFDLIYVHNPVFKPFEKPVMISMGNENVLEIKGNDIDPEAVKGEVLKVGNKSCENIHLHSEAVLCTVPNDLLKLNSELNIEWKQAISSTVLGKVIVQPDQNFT

B1: Anti-Axl IgG1 (AxlG1) (antibody, V domains shown)
VH: EVQLVESGGGLVQPGGSLRLSCAASGFSLSGSWIHWVRQAPGKGLEWVGWINPYRGYAYYADSVKGRFTISADTSKNTAYLQMNSLRAEDTAVYYCAREYSGWGGSSVGYAMDYWGQGTLVTVSS
VL: DIQMTQSPSSLSASVGDRVTITCRASQDVSTAVAWYQQKPGKAPKLLIYSASFLYSGVPSRFSGSGSGTDFTLTISSLQPEDFATYYCQQSYTTPPTFGQGTKVEIKG
notes: also called anti-Axl antibody YW327.6S2 control IgG
Consider B1, for which the binding result is “no binding (tested: 5 µg/mL, serially diluted 1:3)”.
